Source: patent US20260098072A1, “METHODS OF STIMULATING APPETITE AND/OR INCREASING BODY WEIGHT USING NON-NATURALLY OCCURRING MELANOCORTIN RECEPTOR ANTAGONIST ANALOGS” (Endevica Bio, Inc., priority 2022, published 2026)
“And” between values parts separate entries of the source, which are not always exact repeats. Identical values can stand only once. Positions of bridges follow the written chain, without caps; N, C: chain ends. Non-standard residues stand in square brackets, D forms with d. Residues, ends and D or L forms follow the SMILES beside them. No end group written: not given here. d2Nal = N[C@H](Cc1ccc2ccccc2c1)C(=O)O; Hyp = O=C(O)[C@@H]1C[C@@H](O)CN1; Nle = CCCC[C@H](N)C(=O)O

B1: C1 (peptide)
peptide: Ac-[Nle]DPWRWK[dV][dP]-NH2
modifications: lactam 2-7
SMILES: CCCC[C@H](NC(C)=O)C(=O)N[C@H]1CC(=O)NCCCC[C@@H](C(=O)N[C@@H](C(=O)N2CCC[C@@H]2C(N)=O)C(C)C)NC(=O)[C@H](Cc2c[nH]c3ccccc23)NC(=O)[C@H](CCCNC(=N)N)NC(=O)[C@H](Cc2c[nH]c3ccccc23)NC(=O)[C@@H]2CCCN2C1=O
B2: C2 (peptide)
peptide: Ac-LDPWRWKVP-NH2
modifications: lactam 2-7
SMILES: CC(=O)N[C@@H](CC(C)C)C(=O)N[C@H]1CC(=O)NCCCC[C@@H](C(=O)N[C@H](C(=O)N2CCC[C@H]2C(N)=O)C(C)C)NC(=O)[C@H](Cc2c[nH]c3ccccc23)NC(=O)[C@H](CCCNC(=N)N)NC(=O)[C@H](Cc2c[nH]c3ccccc23)NC(=O)[C@@H]2CCCN2C1=O
B3: D1 (peptide)
peptide: Ac-[Nle]DPH[d2Nal]RWK[dV][dP]-NH2
modifications: lactam 2-8
SMILES: CCCC[C@H](NC(C)=O)C(=O)N[C@H]1CC(=O)NCCCC[C@@H](C(=O)N[C@@H](C(=O)N2CCC[C@@H]2C(N)=O)C(C)C)NC(=O)[C@H](Cc2c[nH]c3ccccc23)NC(=O)[C@H](CCCNC(=N)N)NC(=O)[C@@H](Cc2ccc3ccccc3c2)NC(=O)[C@H](Cc2c[nH]cn2)NC(=O)[C@@H]2CCCN2C1=O
B4: D2 (peptide)
peptide: Ac-[Nle]DH[d2Nal]RWPK[dV][dP]-NH2
modifications: lactam 2-8
SMILES: CCCC[C@H](NC(C)=O)C(=O)N[C@H]1CC(=O)NCCCC[C@@H](C(=O)N[C@@H](C(=O)N2CCC[C@@H]2C(N)=O)C(C)C)NC(=O)[C@@H]2CCCN2C(=O)[C@H](Cc2c[nH]c3ccccc23)NC(=O)[C@H](CCCNC(=N)N)NC(=O)[C@@H](Cc2ccc3ccccc3c2)NC(=O)[C@H](Cc2c[nH]cn2)NC1=O
B5: D3 (peptide)
peptide: Ac-[Nle]D[Hyp][d2Nal]RWK[dV][dP]-NH2
modifications: lactam 2-7
SMILES: CCCC[C@H](NC(C)=O)C(=O)N[C@H]1CC(=O)NCCCC[C@@H](C(=O)N[C@@H](C(=O)N2CCC[C@@H]2C(N)=O)C(C)C)NC(=O)[C@H](Cc2c[nH]c3ccccc23)NC(=O)[C@H](CCCNC(=N)N)NC(=O)[C@@H](Cc2ccc3ccccc3c2)NC(=O)[C@@H]2C[C@@H](O)CN2C1=O
B6: D4 (peptide)
peptide: Ac-[Nle]D[Hyp][d2Nal]RWPK[dV][dP]-NH2
modifications: lactam 2-8
SMILES: CCCC[C@H](NC(C)=O)C(=O)N[C@H]1CC(=O)NCCCC[C@@H](C(=O)N[C@@H](C(=O)N2CCC[C@@H]2C(N)=O)C(C)C)NC(=O)[C@@H]2CCCN2C(=O)[C@H](Cc2c[nH]c3ccccc23)NC(=O)[C@H](CCCNC(=N)N)NC(=O)[C@@H](Cc2ccc3ccccc3c2)NC(=O)[C@@H]2C[C@@H](O)CN2C1=O
B7: A1 (peptide)
peptide: Ac-[Nle]DP[d2Nal]RWK[dV][dP]-NH2
SMILES: CCCC[C@H](NC(C)=O)C(=O)N[C@@H](CC(=O)O)C(=O)N1CCC[C@H]1C(=O)N[C@H](Cc1ccc2ccccc2c1)C(=O)N[C@@H](CCCNC(=N)N)C(=O)N[C@@H](Cc1c[nH]c2ccccc12)C(=O)N[C@@H](CCCCN)C(=O)N[C@@H](C(=O)N1CCC[C@@H]1C(N)=O)C(C)C
B8: D5 (peptide)
peptide: Ac-[Nle]DPH[d2Nal]RWK[dP][dV]-NH2
modifications: lactam 2-8
SMILES: CCCC[C@H](NC(C)=O)C(=O)N[C@H]1CC(=O)NCCCC[C@@H](C(=O)N2CCC[C@@H]2C(=O)N[C@@H](C(N)=O)C(C)C)NC(=O)[C@H](Cc2c[nH]c3ccccc23)NC(=O)[C@H](CCCNC(=N)N)NC(=O)[C@@H](Cc2ccc3ccccc3c2)NC(=O)[C@H](Cc2c[nH]cn2)NC(=O)[C@@H]2CCCN2C1=O
B9: TCMCB02 (peptide)
peptide: Ac-[Nle]DP[d2Nal]RWK[dP][dV]-NH2
modifications: lactam 2-7
SMILES: CCCC[C@H](NC(C)=O)C(=O)N[C@H]1CC(=O)NCCCC[C@@H](C(=O)N2CCC[C@@H]2C(=O)N[C@@H](C(N)=O)C(C)C)NC(=O)[C@H](Cc2c[nH]c3ccccc23)NC(=O)[C@H](CCCNC(=N)N)NC(=O)[C@@H](Cc2ccc3ccccc3c2)NC(=O)[C@@H]2CCCN2C1=O
B10: A2 (peptide)
peptide: Ac-[Nle]P[d2Nal]RW[dV][dP]-NH2
SMILES: CCCC[C@H](NC(C)=O)C(=O)N1CCC[C@H]1C(=O)N[C@H](Cc1ccc2ccccc2c1)C(=O)N[C@@H](CCCNC(=N)N)C(=O)N[C@@H](Cc1c[nH]c2ccccc12)C(=O)N[C@@H](C(=O)N1CCC[C@@H]1C(N)=O)C(C)C

Tests used:
human MC3R = biological target: T1, human MC3R (Homo sapiens, UniProt P41968); assay: cAMP accumulation assay (HTRF), antagonist activity at MC3R; type: cell-based; settings: for Hill Coefficient / Top (%): dose-response fit, MC3R
T1 construct: expressed in transfected cells; host or cells: HEK293/CRE-luc/MC3R
Experimental: (§1) The antagonist activity of exemplary non-naturally occurring melanocortin analogs (SEQ ID NOs: 3, 4, 6, 9-11, 14, 15, and 291-309) at the melanocortin 3 receptor (MC3R) and melanocortin 4 (MC4R) receptor was measured via cAMP accumulation assay, according to the following procedure.
(§2) Recombinant cell lines shown in Table 1 were stimulated with melanocortin receptor antagonists and evaluated for cyclic adenosine monophosphate (cAMP) levels as a measurement of receptor activation. cAMP levels were quantified using Homogeneous Time-Resolved Fluorescence (HTRF). The stimulation and CAMP measurement were performed sequentially. First, the compound stimulated the G-protein coupled receptor (GPCR) which then induced downstream signaling, which was measured soon after. Cell lines and stimulated receptors used are detailed in Table 1.
(§3) Twenty-seven exemplary synthetic peptides were tested for antagonist activity at the human MC3R and MC4R at concentrations ranging from 0.1 nM to 1,000 nM. After stimulation, the level of cyclic adenosine monophosphate (CAMP) in each well was quantified via Homogenous Time-Resolved Fluorescence (HTRF) as a measurement of receptor activity. Dose-response curves and estimated IC50 values were then obtained for each antagonist peptide against the MC3R and MC4R. HS024 (TFA) and was used as a positive control for the antagonist activity of MC3R (FIG. 1A) and MC4R (FIG. 1B).

human MC4R = biological target: T2, human MC4R (Homo sapiens, UniProt P32245); assay: cAMP accumulation assay (HTRF), antagonist activity at MC4R; type: cell-based; settings: for Hill Coefficient / Top (%): dose-response fit, MC4R
T2 construct: expressed in transfected cells; host or cells: HEK293/MC4R/CRE-GFP
Experimental: as §1, §2, §3

[1] = biological target: human melanocortin 3 receptor (MC3R) (human, UniProt P41968 1-323); assay: cell-based or functional assay
[2] = biological target: human melanocortin 4 receptor (MC4R) (human, UniProt P32245 1-332); assay: cell-based or functional assay
Chain of human melanocortin 4 receptor (MC4R) (P32245 whole entry): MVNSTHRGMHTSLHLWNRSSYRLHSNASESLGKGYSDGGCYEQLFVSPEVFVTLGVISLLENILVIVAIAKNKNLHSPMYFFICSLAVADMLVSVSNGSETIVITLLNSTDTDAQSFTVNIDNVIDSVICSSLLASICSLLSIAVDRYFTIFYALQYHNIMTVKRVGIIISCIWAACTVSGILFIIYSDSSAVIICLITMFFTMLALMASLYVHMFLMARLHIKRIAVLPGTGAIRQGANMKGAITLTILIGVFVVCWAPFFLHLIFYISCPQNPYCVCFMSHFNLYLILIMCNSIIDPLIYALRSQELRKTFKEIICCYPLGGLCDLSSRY

T2 sequence (P32245 whole entry): as above
T1 sequence (P41968 whole entry): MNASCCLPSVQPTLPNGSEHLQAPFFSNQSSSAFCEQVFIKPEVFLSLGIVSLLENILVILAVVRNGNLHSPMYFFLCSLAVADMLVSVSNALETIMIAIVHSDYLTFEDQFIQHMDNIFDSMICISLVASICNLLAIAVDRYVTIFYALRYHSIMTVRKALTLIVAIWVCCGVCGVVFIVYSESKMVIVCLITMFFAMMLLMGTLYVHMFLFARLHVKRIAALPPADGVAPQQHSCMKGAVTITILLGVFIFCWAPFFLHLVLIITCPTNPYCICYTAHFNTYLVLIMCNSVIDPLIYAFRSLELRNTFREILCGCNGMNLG
Chain of human melanocortin 3 receptor (MC3R) (P41968 whole entry): as above

| Molecule | Max Activation % [1] | Max Activation % [2] | other results |
| --- | --- | --- | --- |
| CCCC[C@H](NC(C)=O)C(=O)N[C@@H](CC(=O)O)C(=O)N1CCC[C@H]1C(=O)N[C@H](Cc1ccc2ccccc2c1)C(=O)N[C@@H](CCCNC(=N)N)C(=O)N[C@@H](Cc1c[nH]c2ccccc12)C(=O)N[C@@H](CCCCN)C(=O)N[C@@H](C(=O)N1CCC[C@@H]1C(N)=O)C(C)C [Peptide A1, Ac-Nle-Asp-Pro-Dnal(2′)-Arg-Trp-Lys-Dval-Dpro-NH2] (Ac-[Nle]DP[d2Nal]RWK[dV][dP]-NH2) | – | – | Emax (human MC3R; HEK293/CRE-luc/MC3R, 0.1 nM to 1,000 nM, read-out: Max Activation %): 84.4%; IC50 (human MC3R; HEK293/CRE-luc/MC3R, estimated from dose-response curve): < 10 µM; Hill Coefficient (human MC3R): 0.55; Top (%) (human MC3R): 1002.64%; IC50 (human MC4R; HEK293/MC4R/CRE-GFP, estimated from dose-response curve): < 10 µM; Hill Coefficient (human MC4R): 0.43 and 0.32; Top (%) (human MC4R): 1195.94% and 652.03% |
| IPWRWVP [Peptide C5] | – | – | Hill Coefficient (human MC3R): 13.82; Top (%) (human MC3R): −0.10%; Hill Coefficient (human MC4R): 1.13; Top (%) (human MC4R): 3.02% |
| VPFFRWVP [Peptide B6] | – | – | Hill Coefficient (human MC3R): 1.62; Top (%) (human MC3R): 4.27%; Hill Coefficient (human MC4R): 0.28; Top (%) (human MC4R): 37.93% |
| Leu-c(Asp-Pro-Trp-Arg-Trp-Lys)-Val-Pro (LDPWRWKVP; lactam 2-7) [Peptide C3] | – | – | Hill Coefficient (human MC3R): 49.34; Top (%) (human MC3R): 3.18%; Hill Coefficient (human MC4R): 0.44; Top (%) (human MC4R): 9.36% |
| IPFFRWVP [B5] | 0.14% | -0.16% | – |
| VPFFRWVP [B6] | 5% | 15.4% | – |
| LDPFFRWKVP [B7] | 1.43% | -2.96% | – |
| IDPFFRWKVP [B8] | 4.86% | 13.6% | – |
| VDPFFRWKVP [B9] | 1.08% | -3.71% | – |
| B1 | 4.55% | 11.1% | – |
| B2 | 0.27% | -3.3% | – |
| LDPWRWKVP (lactam 2-7) [C3] | 3.32% | 8.07% | – |
| LPWRWVP [C4] | -0.32% | -6.88% | – |
| IPWRWVP [C5] | -0.49% | 2.47% | – |
| VPWRWVP [C6] | -0.8% | 6.41% | – |
| LDPWRWKVP [C7] | 0.16% | 5.86% | – |
| IDPWRWKVP [C8] | 0.47% | 3.02% | – |
| VDPWRWKVP [C9] | 1.24% | 5.89% | – |
| B3 | 74.5% | 49.4% | IC50 (cAMP by HTRF, antagonist dose-response) [1]: 5.81 µM; IC50 (cAMP by HTRF, antagonist dose-response) [2]: > 10 µM |
| B4 | 31.8% | 17.6% | – |
| B5 | 111% | 117% | IC50 (cAMP by HTRF, antagonist dose-response) [1]: 0.087 µM; IC50 (cAMP by HTRF, antagonist dose-response) [2]: 0.0406 µM |
| B6 | 50.1% | 21% | IC50 (cAMP by HTRF, antagonist dose-response) [1]: > 10 µM |
| B7 | 84.4% | 79.3% | IC50 (cAMP by HTRF, antagonist dose-response) [1]: 3.66 µM; IC50 (cAMP by HTRF, antagonist dose-response) [2]: 3.61 µM |
| B8 | 24.6% | 41.5% | IC50 (cAMP by HTRF, antagonist dose-response) [1]: > 10 µM |
| B9 | 101% | 120% | IC50 (cAMP by HTRF, antagonist dose-response) [1]: 1.36 µM; IC50 (cAMP by HTRF, antagonist dose-response) [2]: 0.0571 µM |
| B10 | 7.92% | – | – |
